Assay results as given in the supplement of paper PMC9170038.

Test system: K4 kissing-loop RNA reporter
Assay: apparent KD of K4 kissing-loop reporter; higher = weaker reporter binding
Settings: Eterna round: R107
Experimental: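 RNA-MaP round R107: designed RNA switches with theophylline, tryptophan, arginine or FMN aptamers are transcribed on-chip within common flanks. They are titrated with a labelled K4 kissing-loop RNA reporter in RNA-MaP buffer (100 mM Tris pH 7.5, 80 mM KCl, 4 mM MgCl2), without ligand or with the indicated ligand. Median apparent KD per design.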

[1] = input ligand: theophylline 20 uM
[2] = input ligand: tryptophan 2.4 mM
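Note: bound reporter read as fluorescence of individual clusters on recovered sequencing chips by microscopy, with normalized cluster intensities fitted with a binding model.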

Sequence: CGCCGUAAGGCGGUCGCUCCCACUCCGGAAGGAGCGCCCGUAAGGGCAGGUAGGUCGCCGGAGUGAUGUUCCGGUGGAGGGACCG [#2 Exclusion - Arginine A Attempt #8 (Inspired by Omei)]
- apparent KD of K4 kissing-loop reporter (input ligand: FMN 200 uM): 0.323 µM
- apparent KD of K4 kissing-loop reporter (input ligand: arginine 13.2 mM): 0.274 µM
- apparent KD of K4 kissing-loop reporter (input ligand: none): 0.339 µM
- apparent KD of K4 kissing-loop reporter [1]: 0.352 µM
- apparent KD of K4 kissing-loop reporter [2]: 0.33 µM

Sequence: GGUAGCAUGGCGGCCGCCACUAAUACUUCGUAGCCUGUAGCCGGCUUCGUAGAGUGAUGUUCUAUUAGGACCGGGCCAUGCUACC
- apparent KD of K4 kissing-loop reporter (input ligand: FMN 200 uM): 0.361 µM
- apparent KD of K4 kissing-loop reporter (input ligand: arginine 13.2 mM): 0.52 µM
- apparent KD of K4 kissing-loop reporter (input ligand: none): 0.45 µM
- apparent KD of K4 kissing-loop reporter [1]: 0.526 µM
- apparent KD of K4 kissing-loop reporter [2]: 0.493 µM

Sequence: CCUAUCUCAUACGAUACCAGUCCGAGUGAUGUUCGAAAAUAAAUAAAUUUGCCAUAUAAUGACCCUUGGCAGCGUAUGGGAUAGG [Ex Theophylline B K4 11]
- apparent KD of K4 kissing-loop reporter (input ligand: FMN 200 uM): 0.354 µM
- apparent KD of K4 kissing-loop reporter (input ligand: arginine 13.2 mM): 0.296 µM
- apparent KD of K4 kissing-loop reporter (input ligand: none): 0.351 µM
- apparent KD of K4 kissing-loop reporter [1]: 0.4 µM
- apparent KD of K4 kissing-loop reporter [2]: 0.3 µM

Sequence: AGGCGGCAUGAUUGACUGAAAAGAAAUCAACGAGGACCGGUACGGCCGCCACUCGAACACCAGUGAUGUUGGUAUGGGAUAACCC [Exclusion Tryptophan A GF 19]
- apparent KD of K4 kissing-loop reporter (input ligand: FMN 200 uM): 0.178 µM
- apparent KD of K4 kissing-loop reporter (input ligand: arginine 13.2 mM): 0.188 µM
- apparent KD of K4 kissing-loop reporter (input ligand: none): 0.184 µM
- apparent KD of K4 kissing-loop reporter [1]: 0.173 µM
- apparent KD of K4 kissing-loop reporter [2]: 0.159 µM

Sequence: UUCAGUGACAUACGAGUGAUGUUCGUAAUACGAGGACCGGUACGGCCGCCACUCGCACGUCGGCAGUUUGUUCAUGCAUCAGACU
- apparent KD of K4 kissing-loop reporter (input ligand: FMN 200 uM): 0.226 µM
- apparent KD of K4 kissing-loop reporter (input ligand: arginine 13.2 mM): 0.16 µM
- apparent KD of K4 kissing-loop reporter (input ligand: none): 0.259 µM
- apparent KD of K4 kissing-loop reporter [1]: 0.255 µM
- apparent KD of K4 kissing-loop reporter [2]: 0.514 µM

Sequence: UAAUUUAUGUCUUUAAUAUAAUAAUCAGAUACCAGUGAUUAAUGACACCCUUGGCAGCUGUAUAGAGUGAUGUUCUUAUGCUUAA [JR_ExcTheophyA_Sub010]
- apparent KD of K4 kissing-loop reporter (input ligand: FMN 200 uM): 0.245 µM
- apparent KD of K4 kissing-loop reporter (input ligand: arginine 13.2 mM): 0.316 µM
- apparent KD of K4 kissing-loop reporter (input ligand: none): 0.288 µM
- apparent KD of K4 kissing-loop reporter [1]: 0.364 µM
- apparent KD of K4 kissing-loop reporter [2]: 0.179 µM

Sequence: UGGAGUUGACGAAAAGUCAACUCCGGAGAAGGAGCGGACGAAAGUCCAGGUAGGUCGCUCCCUACCAGUGAUGUUGGUACUGAAA
- apparent KD of K4 kissing-loop reporter (input ligand: FMN 200 uM): 0.244 µM
- apparent KD of K4 kissing-loop reporter (input ligand: arginine 13.2 mM): 0.241 µM
- apparent KD of K4 kissing-loop reporter (input ligand: none): 0.209 µM
- apparent KD of K4 kissing-loop reporter [1]: 0.319 µM
- apparent KD of K4 kissing-loop reporter [2]: 0.181 µM

Sequence: UGAUACCAGACGGCCGCCACUCCCGUAAGUCAAAGACUUACGAAGAGAGUUAUCCAGUGAUGUUGGAGGACCGGGUCUGGUAUCU [FiskerMod 14 - Jieux - Exclusion - Tryptophan B]
- apparent KD of K4 kissing-loop reporter (input ligand: FMN 200 uM): 0.21 µM
- apparent KD of K4 kissing-loop reporter (input ligand: arginine 13.2 mM): 0.199 µM
- apparent KD of K4 kissing-loop reporter (input ligand: none): 0.192 µM
- apparent KD of K4 kissing-loop reporter [1]: 0.199 µM
- apparent KD of K4 kissing-loop reporter [2]: 0.261 µM

Sequence: GCAGUCAAUCGACCACGAAAGUGGAUGGAUACCAGCCCGAAACCGGGCCCUUGGCAGCCAGUGAUGUUGGAAGACUGCUUUAAAA [#SwitchBubble 14 #K4Late]
- apparent KD of K4 kissing-loop reporter (input ligand: FMN 200 uM): 0.371 µM
- apparent KD of K4 kissing-loop reporter (input ligand: arginine 13.2 mM): 0.372 µM
- apparent KD of K4 kissing-loop reporter (input ligand: none): 0.548 µM
- apparent KD of K4 kissing-loop reporter [1]: 0.216 µM
- apparent KD of K4 kissing-loop reporter [2]: 0.66 µM

Sequence: GAUGAUCGCGCGGCCGCCACUGGUCAGUGAUGUUGACAUUAAGGCGCCGAGUAGUAACGGCGCCACAGGACCGGGCGCGAUGUAG [First Shot]
- apparent KD of K4 kissing-loop reporter (input ligand: FMN 200 uM): 0.135 µM
- apparent KD of K4 kissing-loop reporter (input ligand: arginine 13.2 mM): 0.155 µM
- apparent KD of K4 kissing-loop reporter (input ligand: none): 0.156 µM
- apparent KD of K4 kissing-loop reporter [1]: 0.126 µM
- apparent KD of K4 kissing-loop reporter [2]: 0.176 µM

Sequence: GGUAGCAUGGCGGCCGCCACUUCAAUUGGAGUGAUGUUCCAAGGCAUCGCGAAAGCGAUGCCAGGAAGGACCGGGCCAUGCUACC
- apparent KD of K4 kissing-loop reporter (input ligand: FMN 200 uM): 0.271 µM
- apparent KD of K4 kissing-loop reporter (input ligand: arginine 13.2 mM): 0.224 µM
- apparent KD of K4 kissing-loop reporter (input ligand: none): 0.306 µM
- apparent KD of K4 kissing-loop reporter [1]: 0.222 µM
- apparent KD of K4 kissing-loop reporter [2]: 0.112 µM

Sequence: AACUCUCAGACAUUUGAGUGAUGUUCAGGCCGAGGACCGGUACGGCCGCCACUCGGGUCUGAGAGAGGUUAUCAAAGAUAGCCAA [Omei KL Tryp A SS A v6]
- apparent KD of K4 kissing-loop reporter (input ligand: FMN 200 uM): 0.467 µM
- apparent KD of K4 kissing-loop reporter (input ligand: arginine 13.2 mM): 0.179 µM
- apparent KD of K4 kissing-loop reporter (input ligand: none): 0.234 µM
- apparent KD of K4 kissing-loop reporter [1]: 0.214 µM
- apparent KD of K4 kissing-loop reporter [2]: 0.385 µM

Sequence: UGGAUAUAGUGAUGUUAUAUAGAGAUUGAUACCAGUUAAGAGAAUAGCCCUUGGCAGCAGAAAGAAGUAUCAUUAGAGAAGAAUG [ExTheophyl.Ac]
- apparent KD of K4 kissing-loop reporter (input ligand: FMN 200 uM): 0.256 µM
- apparent KD of K4 kissing-loop reporter (input ligand: arginine 13.2 mM): 0.182 µM
- apparent KD of K4 kissing-loop reporter (input ligand: none): 0.222 µM
- apparent KD of K4 kissing-loop reporter [1]: 0.213 µM
- apparent KD of K4 kissing-loop reporter [2]: 0.177 µM

Sequence: UAUUUGAUGUCAGGAUAUCGUAUACGAGUGAUGUUCGUAUUUCUACUAUAGAUUAUUUAAAUUUUUCGAGAAGGGACAACAUUUA [#04 K4 FMN B Same State]
- apparent KD of K4 kissing-loop reporter (input ligand: FMN 200 uM): 0.151 µM
- apparent KD of K4 kissing-loop reporter (input ligand: arginine 13.2 mM): 0.0933 µM
- apparent KD of K4 kissing-loop reporter (input ligand: none): 0.115 µM
- apparent KD of K4 kissing-loop reporter [1]: 0.14 µM
- apparent KD of K4 kissing-loop reporter [2]: 0.122 µM

Sequence: UACUAUAGUGAUGUUAUAGAUAAAACAGAUACCAGUGUUACAUAACACCCUUGGCAGCUGAAAAGGGAAAGUAUAAAUGUGUAUU [AstrosSSTHe-A#1newdesignED]
- apparent KD of K4 kissing-loop reporter (input ligand: FMN 200 uM): 0.156 µM
- apparent KD of K4 kissing-loop reporter (input ligand: arginine 13.2 mM): 0.127 µM
- apparent KD of K4 kissing-loop reporter (input ligand: none): 0.133 µM
- apparent KD of K4 kissing-loop reporter [1]: 0.125 µM
- apparent KD of K4 kissing-loop reporter [2]: 0.129 µM

Sequence: AGGUCAGCAGGAAGGAGCGCCCUGACAGGUUGCUGCCGUGGGCAGUGAUGUUGCUCAGUCCGGCAGGUAGGUCGCCUGCUGACCU
- apparent KD of K4 kissing-loop reporter (input ligand: FMN 200 uM): 0.204 µM
- apparent KD of K4 kissing-loop reporter (input ligand: arginine 13.2 mM): 0.157 µM
- apparent KD of K4 kissing-loop reporter (input ligand: none): 0.153 µM
- apparent KD of K4 kissing-loop reporter [1]: 0.188 µM
- apparent KD of K4 kissing-loop reporter [2]: 0.156 µM

Sequence: AGACUACCACACUGUCAAUAGACAGUGGACUAGGAUAUGCUGAUAAGCAGAAGGAGUGAUGUUCCUAGGUAGUCAAUAAAAUAAU [FmnAX 13 G28]
- apparent KD of K4 kissing-loop reporter (input ligand: FMN 200 uM): 0.357 µM
- apparent KD of K4 kissing-loop reporter (input ligand: arginine 13.2 mM): 0.301 µM
- apparent KD of K4 kissing-loop reporter (input ligand: none): 0.378 µM
- apparent KD of K4 kissing-loop reporter [1]: 0.532 µM
- apparent KD of K4 kissing-loop reporter [2]: 0.396 µM
